Test results reported in patent US20250049888A1, “USE OF THE NEGR1 PROTEIN AND BIOLOGICALLY ACTIVE FRAGMENTS THEREOF IN THE THERAPEUTIC TREATMENT OF ALK-RELATED DISEASES” (FONDAZIONE TELETHON ETS (70%), priority 2021, published 2025).

B1: PepB: Negr1 IgG-like domain, SEQ ID NO:16, strep-FLAG tagged recombinant protein (protein)
chain: PKIYDISNDMTINEGTNVTLTCLATGKPEPVISWRHISPSAKPFENGQYLDIYGITRDQAGEYECSAENDVSFPDVKKVRVI
modifications: strep-FLAG tag; PepB
B2: PepC: Negr1 IgG-like domain, SEQ ID NO:17, strep-FLAG tagged recombinant protein (protein)
chain: APTIQEIKSGTVTPGRSGLIRCEGAGVPPPAFEWYKGEKRLFNGQQGIIIQNFSTRSILTVTNVTQEHFGNYTCVAANKLGTTNASLP
modifications: strep-FLAG tag; PepC
B3: PepA: first Negr1 IgG-like domain, SEQ ID NO:8, strep-FLAG tagged recombinant protein from HEK293 cells (protein)
chain: VDFPWAAVDNMLVRKGDTAVLRCYLEDGASKGAWLNRSSIIFAGGDKWSVDPRVSISTLNKRDYSLQIQNVDVTDDGPYTCSVQTQHTPRTMQVHL
modifications: strep-FLAG tag; PepA

Assays:
N2a cells [1] = assay: N2a proliferation, cell number at DIV5; type: cell-based, murine; conditions: 200 ng daily, vs GFP
Experimental: Next, 10,000 naive N2a cells were seeded and treated daily with 200 ng Negr1, PepA, PepB, PepC, or GFP. At DIV5, cell number was evaluated.

ALK = ALK protein expression level in N2a cells, western blotting; type: cell-based, murine; conditions: 300 ng/ml daily for 5 days, vs GFP
Experimental: Protein level and relative phosphorylation was assessed by western blotting. Briefly, upon a wash in PBS, cells were solubilized in lysis buffer (150 mM NaCl, 50 mM HEPES, 0.5% NP40, 1% sodium-deoxycholate). After 1 hour under mild agitation, the lysate was clarified by centrifugation for 20 min at 16,000 g. All experimental procedures were performed at 4° C. Protein concentrations were evaluated via Bradford assay (Bio-Rad, USA). For Western blotting experiments, an equal amount of proteins was diluted with 0.25% 5× Laemmli buffer. The samples were separated on 10% SDS-PAGE gels which were transferred onto nitrocellulose membrane (Sigma-Aldrich) at 80 V for 120 min at 4° C. […] Antibodies were applied overnight in blocking buffer (20 mM Tris, pH 7.4, 150 mM NaCl, 0.1% Tween 20, and 5% nonfat dry milk). Proteins were detected using the ECL prime detection system (GE Healthcare). The ECL signals were acquired with the imaging ChemiDoc Touch system (Bio Rad Laboratory Italy, Segrate, Italy). The optical density of the specific bands was quantified with ImageLab software (Bio Rad).

[2] = Presence in tumor, liver and kidney by STREP-pulldown after in situ injection; type: in vivo, mice; conditions: after in situ injection of 2 μg every second day, day 9
Experimental: HEK293 cells transfected with the relative construct were lysed in RIPA buffer (150 mM NaCl, 50 mM HEPES, 0.5% NP40, 1% Sodium-deoxycholate) for one hour at 4° C. and then processed for streptavidin immunoprecipitation. Proteins were eluted from STREP resin in elution buffer (2.5 mM Desthiobiotin, 100 mM Tris-HCL, 150 mM NaCl, 1 mM EDTA) in mild agitation for one hour at 4° C. The protein concentration was measured via standard Bradford assay (Bio-Rad), and protein purity was assessed by SDS-PAGE followed by silver staining. Synthetic peptides were purchased at Genscript Nederland. Mice tissues were lysed in RIPA buffer (150 mM NaCl, 50 mM HEPES, 0.5% NP40, 1% Sodium-deoxycholate, 1 ml/mg of tissue) for one hour at 4° C. and then processed for streptavidin immunoprecipitation. Proteins were eluted from STREP resin in Laemmli buffer.
At day 9 post injection (or earlier in case the tumor reached 2.5 cm^3 volume), the animals were sacrificed and the mice tissues were harvested and analysed for the presence of GFP and PepA.

MYCN = MYCN protein expression level in N2a cells, western blotting; type: cell-based, murine; conditions: 300 ng/ml daily for 5 days, vs GFP
Experimental: Protein level and relative phosphorylation was assessed by western blotting. Briefly, upon a wash in PBS, cells were solubilized in lysis buffer (150 mM NaCl, 50 mM HEPES, 0.5% NP40, 1% sodium-deoxycholate). After 1 hour under mild agitation, the lysate was clarified by centrifugation for 20 min at 16,000 g. All experimental procedures were performed at 4° C. Protein concentrations were evaluated via Bradford assay (Bio-Rad, USA). For Western blotting experiments, an equal amount of proteins was diluted with 0.25% 5× Laemmli buffer. The samples were separated on 10% SDS-PAGE gels which were transferred onto nitrocellulose membrane (Sigma-Aldrich) at 80 V for 120 min at 4° C. […] Proteins were detected using the ECL prime detection system (GE Healthcare). […] The optical density of the specific bands was quantified with ImageLab software (Bio Rad).
The inventors monitored whether treatment with rNegr1 or PepA might impact on ALK-MYCN pathway. […] At DIV5, the culture was processed for western blotting and ALK and MYCN protein expression levels were evaluated.
At DIV5, the culture was processed for western-blotting, and ALK and MYCN protein expression was evaluated.

CD34 = assay: Tumor neo-vascularization by CD34 immunofluorescence; type: in vivo, mice; conditions: tumors treated in situ, vs GFP
Experimental: Tumors were dissected, post-fixed for 2 hours by immersion in 4% PFA, then included in OCT and stored at −80° C. until processing. 14 μm sections were obtained after serial sectioning on Leica cryostat and mounted on Polysine Slides (Thermo Fischer Scientific). The slices were saturated in 2.5% BSA, 10% NGS, 0.2% Triton X-100, PBS 1×, for 1 hour at RT and incubated with the primary antibody O/N at 4° C. (Anti-CD34 antibody [EP373Y], ABCAM, ab81289). After 3 washes in PBS 1×-0.2% Triton X-100 the sections were incubated for 1 h with the conjugated secondary antibody at RT (AffiniPure Goat Anti-Rabbit IgG (H+L) Alexa Fluor 594, Jackson ImmunoResearch, 111-585-003). The slices were then rinsed 3 times in PBS 1×-0.2% Triton X-100, rinsed once in PBS1× and then mounted in water-based mounting media. Sections were kept at 4° C. in the dark until acquisition with a Zeiss Axio Imager M2 equipped with 40× objective.
Cancer growth requires and triggers vascularization. In particular, cancer mass is characterized by the presence of immature vessels decorated by CD34 protein. Thus, the inventors analyzed tumor neo-vascularization by detecting CD34 protein.

[3] = system: A549 (adenocarcinoma alveolar basal epithelial cells); assay: Growth of human cancer-derived cell line, MTT assay; type: cell-based; conditions: 200 ng daily, vs GFP
Experimental: (§1) The 3-(4,5-dimethylthiazol-2-yl)-2,5-diphenyl tetrazolium bromide (MTT) assay was performed to evaluate culture vitality. N2a cells were cultured in a 96-well plate at a concentration of 5×10^3 cell/cm^2. Treatment condition is indicated in the result section. At the end of the treatment, the MTT solution was added to the cell medium at a final concentration of 0.25 mg/mL. The incubation lasted 30 minutes at 37° C. Next, the medium was removed and the formazan precipitates were collected in DMSO (200 μL). The absorbance was measured at 570 nm using a spectrophotometer (Varioskan LUX, Thermofisher) as a proxy for cell viability. Relative cell viability fold is expressed over the control condition.
(§2) Next, the capability of Negr1 and peptide PepA to halt the growth of human cancer-derived cell lines, namely U87 (glioblastoma), SK-Mel5 (melanoma), MCF7 (breast adenocarcinoma), A549 (adenocarcinoma alveolar basal epithelial cells), and SH-SY5Y (neuroblastoma) was tested. To this aim, each line was treated daily with 200 ng GFP, rNegr1, or PepA. At DIV5, cellular growth was evaluated by MTT assay. […] Such results are in good agreement with the expression of the receptor ALK, that has been experimentally detected in cancer cell lines of ectodermal origin (including small cell lung carcinoma, breast carcinoma, melanoma, neuroblastoma, and glioblastoma) (Dirks et al. 2002).

U87 (glioblastoma) = assay: as above; type: cell-based; conditions: 200 ng daily, vs GFP
Experimental: as §1, §2

SK-Mel5 (melanoma) = assay: as above; type: cell-based; conditions: 200 ng daily, vs GFP
Experimental: as §1, §2

[4] = system: MCF7 (breast adenocarcinoma); assay: as above; type: cell-based; conditions: 200 ng daily, vs GFP
Experimental: as §1, §2

SH-SY5Y (neuroblastoma) = assay: as above; type: cell-based; conditions: 200 ng daily, vs GFP
Experimental: as §1, §2

N2a cells [5] = assay: N2a cell growth, MTT assay; type: cell-based, murine; conditions: 500 ng/ml daily, vs GFP
Experimental: as §1
At the physiological level, Negr1 exists as a GPI-anchored membrane-bound protein and as a soluble protein released upon metalloprotease cleavage (Sanz et al. 2015; Pischedda and Piccoli 2015). Thus, the inventors studied whether ectopic treatment with soluble recombinant Negr1 (Negr1) might modulate cancer cell growth. […] At DIV5, cellular growth was evaluated by MTT assay.
To further narrow down the minimal biologically active sequence within PepA, the PepA structure was analysed in silico. […] At DIV5, cellular growth was evaluated by MTT assay.

N2a cells [6] = assay: N2a xenograft tumor growth in CD1 nude mice; type: in vivo
Experimental: 1 million N2a cells were suspended in 150 μl of DMEM high glucose and delivered subcutaneously above the left rear paw in 8-week old nu/nu mice (Charles River) by injection with a micro-syringe (Hamilton). All procedures involving animals were approved by Institutional and National Agencies (authorization 559/2016-PR).
Xenograft mouse models represent an established tool to investigate cancer progression in vivo. To this aim, 1 million N2a cells (naive, clone 3, and clone 11) was injected subcutaneously (s.c.) in immunodeficient CD1 nude mice. Tumor volume was monitored […] by measuring tumor size with a Vernier caliper. Tumor volume was calculated using the ellipsoid formula (length×width×height×0.52).
To further assess the anti-neoplastic activity of PepA, 1 million N2a cells were injected s.c in 6-weeks old CD1 nude mice. When the tumor reached 100 mm^3 volume, 2 μg of GFP or PepA were injected in situ. The treatment was repeated every second day, and tumor growth was monitored daily.
Next, 1 million N2a cells were injected s.c in 6-weeks old nude mice. […] The treatment was repeated every second day and the tumor growth was monitored daily.
Treatment was repeated every second day and tumor growth was monitored daily.
To this aim, 1 million N2a cells were injected s.c in 6-weeks old CD1 nude mice. […] The treatment was repeated every second day and the tumor growth was monitored daily.

Molecule	N2a proliferation (cell number) at DIV5 (N2a cells [1])	ALK protein level (ALK)	presence in mice tissues (STREP-pulldown) [2]	MYCN protein level (MYCN)	tumor vascularization (total area stained by CD34 and average vessel area) (CD34)	growth of A549 cells (MTT) at DIV5 [3]	growth of U87 cells (MTT) at DIV5 (U87 (glioblastoma))	growth of SK-Mel5 cells (MTT) at DIV5 (SK-Mel5 (melanoma))	growth of MCF7 cells (MTT) at DIV5 [4]	growth of SH-SY5Y cells (MTT) at DIV5 (SH-SY5Y (neuroblastoma))	N2a growth (MTT) at DIV5 (N2a cells [5])	tumor growth (tumor volume, fold over day 1) (N2a cells [6]; 2 μg in situ every second day, vs GFP)	tumor growth (tumor volume, fold over day 1) (N2a cells [6]; 10 μg in situ every second day, vs PEG-scramble peptide)
B1	did not												
B2	did not												
B3	significantly reduced N2a proliferation	robust reduction of ALK and MYCN protein levels	present in the tumor, liver, and kidney	robust reduction of ALK and MYCN protein levels	strongly reduced vascularization	significantly reduce the growth	significantly reduce the growth	significantly reduce the growth	significantly reduce the growth	significantly reduce the growth	significantly reduced N2a growth	robust growth reduction in tumor	robust growth reduction in tumor
